# From patent publication US20250376529A1 (Amgen, published 2025)
# T1: Rhesus GIPR (rhesus, UniProt F7E1R9 22-466)
# T1 sequence: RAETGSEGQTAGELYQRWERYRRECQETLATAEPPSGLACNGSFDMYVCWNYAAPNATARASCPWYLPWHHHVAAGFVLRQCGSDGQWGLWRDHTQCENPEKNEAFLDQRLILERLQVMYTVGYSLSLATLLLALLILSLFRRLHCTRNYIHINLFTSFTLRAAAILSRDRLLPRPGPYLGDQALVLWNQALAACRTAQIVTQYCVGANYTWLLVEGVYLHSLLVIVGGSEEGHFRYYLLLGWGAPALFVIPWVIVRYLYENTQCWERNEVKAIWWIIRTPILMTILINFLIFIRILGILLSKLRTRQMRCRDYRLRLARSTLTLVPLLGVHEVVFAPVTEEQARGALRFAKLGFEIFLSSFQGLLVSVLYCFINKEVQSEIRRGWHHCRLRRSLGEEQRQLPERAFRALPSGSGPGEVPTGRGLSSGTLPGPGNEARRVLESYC
# Target: T1, Rhesus GIPR
# Experiment: cell-based or functional assay
row,Rhesus GIPR CAMP Assay (Conc. mAb @ 60% Inhibition in nM),Binder
1,1.88 nM,"18F2.012 (antibody, human IgG1, kappa, N297G, V domains shown) VH: not shown VL: DIQMTQSPSSLSASIGDRVTITCRASQDLRNYLGWYQQKPGKAPKLLIYGASSLQSGVPSRFSGSGSGTEFTLTISSLQPEDFATYYCLQHNNYPFTFGPGTKVDIKR"
2,0.8 nM,"18F2 (antibody, human IgG1, kappa, N297G, V domains shown) VH: QVQLVESGGGVVQPGRSLRLSCAASGFTFSNFGMHWVRQAPGKGLEWVAVIWYDGSNENYADSVKGRFTISRDNSKNTLYLHMNSLRAADTAVYYCARDGTIFGVVLGDYWGQGTLVTVSS VL: DIQMTQSPSSLSASIGDRVTITCRASQDLRNYLGWYHQKPGKAPKRLIYGASSLQSGVPSRFSGSGSGTEFTLTISSLQPEDFATYYCLQHNNYPFTFGPGTKVDIKR"
3,2.01 nM,"18F2.003 (antibody, human IgG1, kappa, N297G, V domains shown) VH: QVQLVESGGGVVQPGRSLRLSCAASGFTFSNFGMHWVRQAPGKGLEWVAVIWYDASNENYADAVKGRFTISRDNSKNTLYLHMNSLRAADTAVYYCARDGTIFGVVLGDYWGQGTLVTVSS VL: DIQMTQSPSSLSASIGDRVTITCRASQDLRNYLGWYQQKPGKAPKLLIYGASSLQSGVPSRFSGSGSGTEFTLTISSLQPEDFATYYCLQHNNYPFTFGPGTKVDIKR"
4,0.15 nM,"6H1.009 (antibody, human IgG1, kappa, N297G) heavy: not shown light: DIQMTQSPSSLSASIGDRVTITCRASQDIRDYLGWYQQKPGKAPKRLIYGASSLQSGVPSRFSGSGSGTEFTLTISSLQPEDFATYYCLQHNNYPFTFGQGTKVDIKRTVAAPSVFIFPPSDEQLKSGTASVVCLLNNFYPREAKVQWKVDNALQSGNSQESVTEQDSKDSTYSLSSTLTLSKADYEKHKVYACEVTHQGLSSPVTKSFNRGEC"
5,0.44 nM,"6H1.008 (antibody, human IgG1, kappa, N297G, V domains shown) VH: not shown VL: DIQMTQSPSSLSASIGDRVTITCRASQDIRDYLGWYQQKPGKAPKLLIYGASSLQSGVPSRFSGSGSGTEFTLTISSLQPEDFATYYCLQHNNYPFTFGPGTKVDIKR"
6,0.44 nM,"4H9.004.004 (antibody, human IgG1, kappa, N297G) heavy: not shown light: DIQMTQSPSSLSASVGDRVTITCRASQGIRNELGWYQQKPGKAPKLLIYGASSLQSGVPSRFSGSGSGTEFTLTISSLQPEDFVTYYCLQHNSYPFTFGPGTKVDVKRTVAAPSVFIFPPSDEQLKSGTASVVCLLNNFYPREAKVQWKVDNALQSGNSQESVTEQDSKDSTYSLSSTLTLSKADYEKHKVYACEVTHQGLSSPVTKSFNRGEC"
7,0.79 nM,"6H1.004 (antibody, human IgG1, kappa, N297G, V domains shown, also called iPS:359873; iPS:359875) VH: not shown VL: DIQMTQSPSSLSASIGDRVTITCRASQDIRDYLGWYQQKPGKAPKLLIYGASSLQSGVPSRFSGSGSGTEFTLTISSLQPEDFATYYCLQHNNYPFTFGQGTKVDIKR"
8,0.84 nM,"4B1.015 (antibody, human IgG1, kappa, N297G, V domains shown) VH: not shown VL: DIQMTQSPSSLSASIGDRVTITCRASQDIRDYLGWYQQKPGKAPKLLIYGASSLQSGVPSRFSGSGSGTEFTLTISSLQPEDFATYYCLQHNNYPFTFGQGTKVDIKR"
9,0.31 nM,"6H1.002 (antibody, human IgG1, kappa, N297G, V domains shown) VH: not shown VL: DIQMTQSPSSLSASIGDRVTITCRASQDIRDYLGWYQQKPGKAPKRLIYGASSLQSGVPSRFSGSGSGTEFTLTISSLQPEDFATYYCLQHNNYPFTFGPGTKVDIKR"
10,0.51 nM,"4B1.011 (antibody, human IgG1, kappa, N297G, V domains shown) VH: not shown VL: DIQMTQSPSSLSASIGDRVTITCRASQDIRDYLGWYQQKPGKAPKRLIYGASSLQSGVPSRFSGSGSGTEFTLTISSLQPEDFATYYCLQHNNYPFTFGQGTKVDIKR"
11,0.47 nM,"6H1.006 (antibody, human IgG1, kappa, N297G, V domains shown) VH: QVQLVESGGGVVQPGRSLRLSCAASGFTFSYFGMHWVRQAPGKGLEWVAVIWYDGSNKYYADSVKGRFTISRDNSKNTLYLQMNSLRAEDTAVYYCARDGTIFGVLLGDYWGQGTLVTVSS VL: DIQMTQSPSSLSASIGDRVTITCRASQDIRDYLGWYQQKPGKAPKLLIYGASSLQSGVPSRFSGSGSGTEFTLTISSLQPEDFATYYCLQHNNYPFTFGPGTKVDIKR"
12,1.35 nM,"4B1.013 (antibody, human IgG1, kappa, N297G, V domains shown) VH: QVQLVESGGGVVQPGRSLRLSCAASGFTFSNFGMHWVRQAPGKGLEWVAVIWYDASNENYADSVKGRFTISRDNSKNTLYLHMNSLRVADTAVYYCARDGTIFGVVLGDYWGQGTLVTVSS VL: DIQMTQSPSSLSASIGDRVTITCRASQDIRDYLGWYQQKPGKAPKLLIYGASSLQSGVPSRFSGSGSGTEFTLTISSLQPEDFATYYCLQHNNYPFTFGQGTKVDIKR"
13,2.23 nM,"18F2.002 (antibody, human IgG1, kappa, N297G, V domains shown) VH: not shown VL: DIQMTQSPSSLSASIGDRVTITCRASQDLRNYLGWYQQKPGKAPKLLIYGASSLQSGVPSRFSGSGSGTEFTLTISSLQPEDFATYYCLQHNNYPFTFGPGTKVDIKR"
14,0.55 nM,"6H1.007 (antibody, human IgG1, kappa, N297G, V domains shown) VH: QVQLVESGGGVVQPGRSLRLSCAASGFTFSYFGMHWVRQAPGKGLEWVAVIWYDASNKYYADSVKGRFTISRDNSKNTLYLQMNSLRAEDTAVYYCARDGTIFGVLLGDYWGQGTLVTVSS VL: DIQMTQSPSSLSASIGDRVTITCRASQDIRDYLGWYQQKPGKAPKLLIYGASSLQSGVPSRFSGSGSGTEFTLTISSLQPEDFATYYCLQHNNYPFTFGPGTKVDIKR"
15,0.95 nM,"4B1.014 (antibody, human IgG1, kappa, N297G, V domains shown) VH: QVQLVESGGGVVQPGRSLRLSCAASGFTFSNFGMHWVRQAPGKGLEWVAVIWYDGSNENYADAVKGRFTISRDNSKNTLYLHMNSLRVADTAVYYCARDGTIFGVVLGDYWGQGTLVTVSS VL: DIQMTQSPSSLSASIGDRVTITCRASQDIRDYLGWYQQKPGKAPKLLIYGASSLQSGVPSRFSGSGSGTEFTLTISSLQPEDFATYYCLQHNNYPFTFGQGTKVDIKR"
16,0.43 nM,"4H9.004.001 (antibody, human IgG1, kappa, N297G) heavy: not shown light: DIQMTQSPSSLSASVGDRVTITCRASQGIRNELGWYQQKPGKAPKLLIYGASSLQSGVPSRFSGSGSGTEFTLTISSLQPEDFVTYYCLQHNSYPFTFGQGTKVDVKRTVAAPSVFIFPPSDEQLKSGTASVVCLLNNFYPREAKVQWKVDNALQSGNSQESVTEQDSKDSTYSLSSTLTLSKADYEKHKVYACEVTHQGLSSPVTKSFNRGEC"
17,0.49 nM,"6H1.005 (antibody, human IgG1, kappa, N297G, V domains shown) VH: not shown VL: DIQMTQSPSSLSASIGDRVTITCRASQDIRDYLGWYQQKPGKAPKLLIYGASSLQSGVPSRFSGSGSGTEFTLTISSLQPEDFATYYCLQHNNYPFTFGQGTKVDIKR"
18,0.67 nM,"4B1 (antibody, human IgG1, kappa, N297G, V domains shown) VH: QVQLVESGGGVVQPGRSLRLSCAASGFTFSNFGMHWVRQAPGKGLEWVAVIWYDGSNENYADSVKGRFTISRDNSKNTLYLHMNSLRVADTAVYYCARDGTIFGVVLGDYWGQGTLVTVSS VL: DIQMTQSPSSLSASIGDRVTITCRASQDIRDYLGWYQQKPGKAPKRLIYGASSLQSGVPSRFSGSGSGTEFTLTISSLQPEDFATYYCLQHNNYPFTFGPGTKVDIKR"
19,1.57 nM,"4B1.016 (antibody, human IgG1, kappa, N297G, V domains shown) VH: not shown VL: DIQMTQSPSSLSASIGDRVTITCRASQDIRDYLGWYQQKPGKAPKLLIYGASSLQSGVPSRFSGSGSGTEFTLTISSLQPEDFATYYCLQHNNYPFTFGQGTKVDIKR"
